Measured values from patent publication US20160237157A1 (published 2016).

T1: human FGFR4 (soluble, Part B: SPR and FGFR4 ELISA) (human, UniProt P22455 22-369)
T1 construct: Injected over immobilized IgG in SPR (0.48-1000 nM) and immobilized in the FGFR4 ELISA
T1 sequence: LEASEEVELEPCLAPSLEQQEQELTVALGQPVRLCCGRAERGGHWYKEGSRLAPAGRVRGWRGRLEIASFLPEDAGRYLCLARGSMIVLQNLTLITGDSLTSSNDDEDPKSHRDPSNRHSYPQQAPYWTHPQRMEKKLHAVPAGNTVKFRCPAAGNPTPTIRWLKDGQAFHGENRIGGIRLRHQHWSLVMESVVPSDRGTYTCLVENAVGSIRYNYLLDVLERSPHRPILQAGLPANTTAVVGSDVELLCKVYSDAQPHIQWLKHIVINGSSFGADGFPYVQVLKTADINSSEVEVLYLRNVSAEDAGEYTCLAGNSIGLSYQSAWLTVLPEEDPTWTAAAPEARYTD

B1: hLD1.vA (antibody, V domains shown)
VH: EVQLVESGGGLVQPGGSLRLSCAASGYTFTNHWMNWVRQAPGKGLEWVGMIHPSDSETTLDQKFKDRFTISADTSKNTAYLQMNSLRAEDTAVYYCTRGDISLFDYWGQGTLVTVSS
VL: DIQMTQSPSSLSASVGDRVTITCRTSQDISNFLNWYQQKPGKAPKLLIYYTSRLHSGVPSRFSGSGSGTDFTLTISSLQPEDFATYYCQQGNALPYTFGQGTKVEIKR
B2: chimeric LD1 (chLD1) (antibody, V domains shown)
VH: EVQLQQPGAVLVRPGTSVKLSCKASGYTFTNHWMNWVKQRPGQGLEWIGMIHPSDSETTLDQKFKDKATLTVDKSSSTAYMQLNRPTSEDSAVYYCTRGDISLFDYWGQGTTVTVSS
VL: DIQMTQTTSSLSASLGDRVTITCRTSQDISNFLNWYQQKPDGTFKILISYTSRLHSGVPSRFSGSGSGTDYSLTISTLEQEDFATYFCQQGNALPYTFGGGTKLEIE

Experiments:
[1] = molecular target: T1, human FGFR4 (soluble, Part B: SPR and …); test: surface plasmon resonance, compared with chLD1
[2] = molecular target: human FGFR4 expressed at the cell surface (human, UniProt P22455 22-802); test: cell-based or functional assay

Binder | fold decrease of affinity against chLD1 [1] | CYP7α1 expression in HEP3B cells without added FGF19, fold increase [2] | CYP7α1 expression in HUH7 cells in the absence of FGF19, fold increase [2] | CYP7α1 expression in HUH7 cells in the presence of FGF19, fold increase [2]
B1 | ~5 fold | – | – | –
B2 | – | 2 fold | 3.5 fold | 2.9 fold
